According to PMC10312692 (bioRxiv, 2023):

Molecular target: the molecule itself
Test: SEC

Protein	binding result
DISC1 598-854 C680S/C682S/C684S/C698S/C762S/C782S/C844S (domain or fragment) GNHFFTAKDLTEEIRSLTSEREGLEGLLSKLLVLSSRNVKKLGSVKEDYNRLRREVEHQETAYETSVKENTMKYMETLKNKLSSSKSPLLGKVWEADLEASRLLIQSLQLQEARGSLSVEDERQMDDLEGAAPPIPPRLHSEDKRKTPLKVLEEFKTHLIPSLHSAGGEQKEESYILSAELGEKSEDIGKKLLYLEDQLHTAIHSHDEDLIQSLRRELQMVKETLQAMILQLQPAKEAGEREAAASSMTAGVHEAQA	binds
DISC1 598-854 C698S/C762S/C782S/C844S (domain or fragment) GNHFFTAKDLTEEIRSLTSEREGLEGLLSKLLVLSSRNVKKLGSVKEDYNRLRREVEHQETAYETSVKENTMKYMETLKNKLCSCKCPLLGKVWEADLEASRLLIQSLQLQEARGSLSVEDERQMDDLEGAAPPIPPRLHSEDKRKTPLKVLEEFKTHLIPSLHSAGGEQKEESYILSAELGEKSEDIGKKLLYLEDQLHTAIHSHDEDLIQSLRRELQMVKETLQAMILQLQPAKEAGEREAAASSMTAGVHEAQA	binds
DISC1 598-854 C680S/C682S/C698S/C762S/C782S/C844S (domain or fragment) GNHFFTAKDLTEEIRSLTSEREGLEGLLSKLLVLSSRNVKKLGSVKEDYNRLRREVEHQETAYETSVKENTMKYMETLKNKLSSSKCPLLGKVWEADLEASRLLIQSLQLQEARGSLSVEDERQMDDLEGAAPPIPPRLHSEDKRKTPLKVLEEFKTHLIPSLHSAGGEQKEESYILSAELGEKSEDIGKKLLYLEDQLHTAIHSHDEDLIQSLRRELQMVKETLQAMILQLQPAKEAGEREAAASSMTAGVHEAQA	binds
DISC1 598-854 C680S/C698S/C762S/C782S/C844S (domain or fragment) GNHFFTAKDLTEEIRSLTSEREGLEGLLSKLLVLSSRNVKKLGSVKEDYNRLRREVEHQETAYETSVKENTMKYMETLKNKLSSCKCPLLGKVWEADLEASRLLIQSLQLQEARGSLSVEDERQMDDLEGAAPPIPPRLHSEDKRKTPLKVLEEFKTHLIPSLHSAGGEQKEESYILSAELGEKSEDIGKKLLYLEDQLHTAIHSHDEDLIQSLRRELQMVKETLQAMILQLQPAKEAGEREAAASSMTAGVHEAQA	binds
DISC1 598-854 C682S/C684S/C698S/C762S/C782S/C844S (domain or fragment) GNHFFTAKDLTEEIRSLTSEREGLEGLLSKLLVLSSRNVKKLGSVKEDYNRLRREVEHQETAYETSVKENTMKYMETLKNKLCSSKSPLLGKVWEADLEASRLLIQSLQLQEARGSLSVEDERQMDDLEGAAPPIPPRLHSEDKRKTPLKVLEEFKTHLIPSLHSAGGEQKEESYILSAELGEKSEDIGKKLLYLEDQLHTAIHSHDEDLIQSLRRELQMVKETLQAMILQLQPAKEAGEREAAASSMTAGVHEAQA	binds
DISC1 598-854 C680S/C684S/C698S/C762S/C782S/C844S (domain or fragment) GNHFFTAKDLTEEIRSLTSEREGLEGLLSKLLVLSSRNVKKLGSVKEDYNRLRREVEHQETAYETSVKENTMKYMETLKNKLSSCKSPLLGKVWEADLEASRLLIQSLQLQEARGSLSVEDERQMDDLEGAAPPIPPRLHSEDKRKTPLKVLEEFKTHLIPSLHSAGGEQKEESYILSAELGEKSEDIGKKLLYLEDQLHTAIHSHDEDLIQSLRRELQMVKETLQAMILQLQPAKEAGEREAAASSMTAGVHEAQA	binds
DISC1 598-854 C682S/C698S/C762S/C782S/C844S (domain or fragment) GNHFFTAKDLTEEIRSLTSEREGLEGLLSKLLVLSSRNVKKLGSVKEDYNRLRREVEHQETAYETSVKENTMKYMETLKNKLCSSKCPLLGKVWEADLEASRLLIQSLQLQEARGSLSVEDERQMDDLEGAAPPIPPRLHSEDKRKTPLKVLEEFKTHLIPSLHSAGGEQKEESYILSAELGEKSEDIGKKLLYLEDQLHTAIHSHDEDLIQSLRRELQMVKETLQAMILQLQPAKEAGEREAAASSMTAGVHEAQA	binds
DISC1 598-854 C684S/C698S/C762S/C782S/C844S (domain or fragment) GNHFFTAKDLTEEIRSLTSEREGLEGLLSKLLVLSSRNVKKLGSVKEDYNRLRREVEHQETAYETSVKENTMKYMETLKNKLCSCKSPLLGKVWEADLEASRLLIQSLQLQEARGSLSVEDERQMDDLEGAAPPIPPRLHSEDKRKTPLKVLEEFKTHLIPSLHSAGGEQKEESYILSAELGEKSEDIGKKLLYLEDQLHTAIHSHDEDLIQSLRRELQMVKETLQAMILQLQPAKEAGEREAAASSMTAGVHEAQA	binds
